The target of the test is hAgo2 (Homo sapiens), Q9UKV8. As to the kind of experiment: cleavage activity titration. To be noted: siRNA-bound hAgo2; remark: other sources report otherwise.
Sequence of hAgo2 (Homo sapiens), Q9UKV8 (Q9UKV8 whole entry): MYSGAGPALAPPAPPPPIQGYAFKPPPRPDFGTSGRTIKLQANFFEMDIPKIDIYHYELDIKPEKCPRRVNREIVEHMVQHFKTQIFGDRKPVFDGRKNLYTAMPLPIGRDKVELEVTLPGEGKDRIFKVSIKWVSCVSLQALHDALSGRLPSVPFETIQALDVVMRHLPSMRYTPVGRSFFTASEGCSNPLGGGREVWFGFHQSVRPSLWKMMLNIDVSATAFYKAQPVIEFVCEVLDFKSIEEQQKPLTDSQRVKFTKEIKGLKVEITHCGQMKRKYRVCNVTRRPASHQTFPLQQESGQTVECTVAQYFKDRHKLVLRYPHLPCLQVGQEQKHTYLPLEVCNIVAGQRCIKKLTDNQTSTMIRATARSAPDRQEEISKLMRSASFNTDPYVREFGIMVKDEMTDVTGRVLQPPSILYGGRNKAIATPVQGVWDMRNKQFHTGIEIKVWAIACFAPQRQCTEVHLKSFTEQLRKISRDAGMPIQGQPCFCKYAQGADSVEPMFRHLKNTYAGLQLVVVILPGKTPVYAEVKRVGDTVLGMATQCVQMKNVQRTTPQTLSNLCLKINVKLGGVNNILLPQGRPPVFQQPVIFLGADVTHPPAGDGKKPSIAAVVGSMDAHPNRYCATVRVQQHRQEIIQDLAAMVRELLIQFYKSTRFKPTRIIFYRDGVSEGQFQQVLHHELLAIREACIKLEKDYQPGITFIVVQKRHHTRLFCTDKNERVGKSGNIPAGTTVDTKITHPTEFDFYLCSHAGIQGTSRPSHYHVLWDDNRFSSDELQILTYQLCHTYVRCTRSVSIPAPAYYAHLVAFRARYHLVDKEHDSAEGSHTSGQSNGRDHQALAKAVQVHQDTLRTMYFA

B1: hTRBP, Q15633 (protein)
chain: MSEEEQGSGTTTGCGLPSIEQMLAANPGKTPISLLQEYGTRIGKTPVYDLLKAEGQAHQPNFTFRVTVGDTSCTGQGPSKKAAKHKAAEVALKHLKGGSMLEPALEDSSSFSPLDSSLPEDIPVFTAAAAATPVPSVVLTRSPPMELQPPVSPQQSECNPVGALQELVVQKGWRLPEYTVTQESGPAHRKEFTMTCRVERFIEIGSGTSKKLAKRNAAAKMLLRVHTVPLDARDGNEVEPDDDHFSIGVGSRLDGLRNRGPGCTWDSLRNSVGEKILSLRSCSLGSLGALGPACCRVLSELSEEQAFHVSYLDIEELSLSGLCQCLVELSTQPATVCHGSATTREAARGEAARRALQYLKIMAGSK
Regarding B1, the Kd (as a rule, the concentration at which binding is half-saturated) was 2000 nM.

These data come from publication PMC4718636.
